Measurements from patent US20160272716A1 (AGENSYS, published 2016).
Blank lines part the entries; values can stand above or below the molecule they belong to.

What was measured:
[1] = biological target: T1, human FLT3 expressed on the cell surface (human, UniProt P36888 27-993); experiment: FACS, biotinylated isotype control 10 ug/ml, Streptavidin-PE, REH cells (ALL)
T1 construct: FLT3 on human leukemia cell lines, on recombinant cells and on primary blood cells; also called Flk2; STK1

[2] = biological target: T1, human FLT3 expressed on the cell surface; experiment: FACS, biotinylated isotype control 10 ug/ml, Streptavidin-PE, THP-1 cells (AML)
[3] = biological target: T1, human FLT3 expressed on the cell surface; experiment: FACS, biotinylated isotype control 10 ug/ml, Streptavidin-PE, MV-4-11 cells (AML)
[4] = biological target: T1, human FLT3 expressed on the cell surface; experiment: FACS, biotinylated isotype control 10 ug/ml, Streptavidin-PE, EOL-1 cells (AML)
[5] = biological target: T1, human FLT3 expressed on the cell surface; experiment: FACS, biotinylated isotype control 10 ug/ml, Streptavidin-PE, MONOMAC-1 cells (AML)
[6] = biological target: T1, human FLT3 expressed on the cell surface; experiment: FACS, biotinylated isotype control 10 ug/ml, Streptavidin-PE, SKM-1 cells (AML)
[7] = biological target: T1, human FLT3 expressed on the cell surface; experiment: FACS, biotinylated isotype control 10 ug/ml, Streptavidin-PE, PL-21 cells (AML)
[8] = biological target: T1, human FLT3 expressed on the cell surface; experiment: FACS, biotinylated isotype control 10 ug/ml, Streptavidin-PE, SEM cells (B-ALL)
[9] = biological target: T1, human FLT3 expressed on the cell surface; experiment: FACS, biotinylated isotype control 10 ug/ml, Streptavidin-PE, OCI-AML2 cells (AML)
[10] = biological target: T1, human FLT3 expressed on the cell surface; experiment: FACS, biotinylated isotype control 10 ug/ml, Streptavidin-PE, MOLM-13 cells (AML)
[11] = biological target: T1, human FLT3 expressed on the cell surface; experiment: FACS, biotinylated isotype control 10 ug/ml, Streptavidin-PE, NALM-1 cells (CML)
[12] = biological target: T1, human FLT3 expressed on the cell surface; experiment: FACS, biotinylated isotype control 10 ug/ml, Streptavidin-PE, RS4;11 cells (B-ALL)
[13] = biological target: T1, human FLT3 expressed on the cell surface; experiment: competition FACS on MOLM-13 cells: FL titrated 0.1 to 100 ng/ml, 30 min pre-incubation; displaced antibody: biotinylated cHv62-1b37.1 at 10 ug/ml
Experimental: (§1) In another experiment, The ability of anti-FLT3 antibodies, CHv62.21 and v62-1b37.1, to bind to FLT3 expressed on the surface of human leukemia MOLM-13 cell line was evaluated in the presence of human FLT3 Ligand (hFL). Isotype control antibody, AGS91.1-pAF, was used as a negative control.
(§2) Briefly, The MOLM-13 cells were seeded at a density of 50,000 cells per well onto round-bottom 96 well plates. The plates were washed one time with 150 μl per well of PBS. The cells were Fc blocked (20 μg/mL) at a volume of 50 μl per well in FACS buffer (PBS+2% FBS+0.1% sodium azide) to reduce non-specific binding. Cells were incubated at 4° C. for 15 minutes. Human FLT3 Ligand was added to appropriate wells at 100 ng/mL and serially diluted 1:2 across the plate for a total of 11 points. Cells were incubated for 30 minutes at 4° C. prior to adding biotinylated FLT3 antibodies. After incubation, the biotinylated anti-FLT3 antibodies and isotype control antibody were prepared in FACS buffer at 10 μg/mL and 1 μg/mL and 25 μl was added to wells and incubated for 1 hour at 4° C. Cells were washed two times with FACS buffer and Streptavidin-PE (Jackson immune) was added 100 μl per well and incubated for 1 hour at 4° C. Cells were washed two times with FACS buffer and read on the Attune Cytometer (Life technologies) and analyzed in FlowJo (Tree Star) software.

[14] = biological target: T1, human FLT3 expressed on the cell surface; experiment: FACS on MOLM-13 cells: 30 min pre-incubation with human FLT3 ligand, then biotinylated antibody, streptavidin-PE
Experimental: as §1, §2

[15] = biological target: T1, human FLT3 expressed on the cell surface; experiment: flow cytometry, cell surface FLT3
[16] = biological target: T1, human FLT3 expressed on the cell surface; experiment: FACS, biotinylated antibody 10 ug/ml, Streptavidin-PE, NALM-1 cells (CML)
Experimental: (§3) CHv62.21 was tested for binding to AML and B-ALL cell lines grown in vitro. (See, FIG. 15A-M). Briefly, CHv62.21 and an isotype matched control antibody were biotinylated using NHS LC biotin. In vitro, exponentially grown cancer cell lines were used for all experiments. Cells were harvested by and washed by centrifugation. Cells were Fc blocked to reduce non-specific binding. Antibodies were diluted to 10 ug/ml final concentration and co-incubated with cells at 4° C. for 1 hour. At the end of the incubation, cells were washed and incubated with secondary detection Streptavidin-PE antibody at a final 1:200 (2.5 ug/ml) dilution for 1 hour at 4° C. After washing un-bound secondary antibody, cells were analyzed by FACS and geometric mean fluorescence was determined and reported. Fluorescence ratio was calculated as follows: Geo mean cHv62.21/Geo mean isotype control=MFR, a measure of fold expression above isotype control.

[17] = biological target: T1, human FLT3 expressed on the cell surface; experiment: FACS, biotinylated antibody 10 ug/ml, Streptavidin-PE, SEM cells (B-ALL)
Experimental: as §3

[18] = biological target: T1, human FLT3 expressed on the cell surface; experiment: FACS, biotinylated antibody 10 ug/ml, Streptavidin-PE, MONOMAC-1 cells (AML)
Experimental: as §3
(§4) Geometric Mean values and Mean Florescence ratios (MFR) values were obtained (Table VI) and histograms are shown (FIG. 15A-M).

[19] = biological target: T1, human FLT3 expressed on the cell surface; experiment: FACS, biotinylated antibody 10 ug/ml, Streptavidin-PE, REH cells (ALL)
Experimental: as §3, §4

[20] = biological target: T1, human FLT3 expressed on the cell surface; experiment: FACS, biotinylated antibody 10 ug/ml, Streptavidin-PE, THP-1 cells (AML)
Experimental: as §3, §4

[21] = biological target: T1, human FLT3 expressed on the cell surface; experiment: FACS, biotinylated antibody 10 ug/ml, Streptavidin-PE, OCI-AML2 cells (AML)
Experimental: as §3, §4

[22] = biological target: T1, human FLT3 expressed on the cell surface; experiment: FACS, biotinylated antibody 10 ug/ml, Streptavidin-PE, SKM-1 cells (AML)
Experimental: as §3, §4

[23] = biological target: T1, human FLT3 expressed on the cell surface; experiment: FACS, biotinylated antibody 10 ug/ml, Streptavidin-PE, EOL-1 cells (AML)
Experimental: as §3, §4

[24] = biological target: T1, human FLT3 expressed on the cell surface; experiment: FACS, biotinylated antibody 10 ug/ml, Streptavidin-PE, MV-4-11 cells (AML)
Experimental: as §3, §4

[25] = biological target: T1, human FLT3 expressed on the cell surface; experiment: FACS, biotinylated antibody 10 ug/ml, Streptavidin-PE, RS4;11 cells (B-ALL)
Experimental: as §3, §4

[26] = biological target: T1, human FLT3 expressed on the cell surface; experiment: FACS, biotinylated antibody 10 ug/ml, Streptavidin-PE, MOLM-13 cells (AML)
Experimental: as §3

[27] = biological target: T1, human FLT3 expressed on the cell surface; experiment: FACS, biotinylated antibody 10 ug/ml, Streptavidin-PE, PL-21 cells (AML)
Experimental: as §3, §4

T1 sequence (P36888 27-993 T227M limits assumed): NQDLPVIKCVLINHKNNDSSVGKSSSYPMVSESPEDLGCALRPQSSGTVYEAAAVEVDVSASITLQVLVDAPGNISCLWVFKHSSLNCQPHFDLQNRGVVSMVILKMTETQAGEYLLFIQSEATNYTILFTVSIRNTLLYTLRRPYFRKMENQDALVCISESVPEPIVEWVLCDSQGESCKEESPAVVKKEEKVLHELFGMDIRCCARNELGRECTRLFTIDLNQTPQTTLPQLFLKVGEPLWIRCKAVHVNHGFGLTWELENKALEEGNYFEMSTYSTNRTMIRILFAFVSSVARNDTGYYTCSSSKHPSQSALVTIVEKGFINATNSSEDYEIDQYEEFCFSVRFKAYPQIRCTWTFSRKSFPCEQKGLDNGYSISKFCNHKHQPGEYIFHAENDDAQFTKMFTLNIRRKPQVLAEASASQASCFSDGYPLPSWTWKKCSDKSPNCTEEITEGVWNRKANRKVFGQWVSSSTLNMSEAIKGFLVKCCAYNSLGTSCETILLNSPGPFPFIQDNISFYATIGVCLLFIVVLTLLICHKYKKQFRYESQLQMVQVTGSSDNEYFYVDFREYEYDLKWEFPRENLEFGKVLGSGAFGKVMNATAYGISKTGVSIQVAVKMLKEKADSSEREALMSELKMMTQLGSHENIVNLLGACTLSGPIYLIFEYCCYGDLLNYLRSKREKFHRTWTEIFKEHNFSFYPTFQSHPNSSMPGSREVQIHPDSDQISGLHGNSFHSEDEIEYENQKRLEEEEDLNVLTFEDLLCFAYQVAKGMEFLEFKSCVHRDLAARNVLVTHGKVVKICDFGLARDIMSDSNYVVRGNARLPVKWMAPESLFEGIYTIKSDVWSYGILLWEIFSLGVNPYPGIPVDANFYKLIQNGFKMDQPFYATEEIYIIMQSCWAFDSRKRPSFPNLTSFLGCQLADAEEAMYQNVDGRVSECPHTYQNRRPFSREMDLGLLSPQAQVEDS

B2: v62-1b37.1 (antibody, human IgG1, kappa, V domains shown)
VH: EVQLVESGGGVVRPGGSLRLSCAASGFTFDDYGMSWVRQAPGKGLEWVSGINWNGGSTGYADSVKGRFTISRDDAKNSLYLQMNSLRAEDTALYHCARDGYTYGPFDNWGQGTLVTVSS
VL: DIQMTQSPSSLSASVGDRVTITCRASQGIRNDLGWYQQKPGKAPKRLIYAASSLQSGVPSRFSGSGSGTEFTLTISSLQPEDFATYYCLQHNSYPYTFGQGTKLEIKR
modifications: biotinylated in the MOLM-13 FACS
notes: also called cHv62-1b37.1
binding result [14]: binds

B3: v62-1b21 (hybridoma MAb) (antibody, V domains shown)
VH: EVQLVESGGGLVRPGGSLRLSCAASGFTFSGYSINWVRQAPGKGLEWVSSISSSSNYIYYADSVKGRFTISRDNAKNSLYLQMNSLRAEDTAVYYCAREGFIAGTTFDAFDIWGQGTMVTVSS
VL: DIQMTQSPSSLSASVGDRVTITCRASQGIRNDLGWYQQKPGKAPKRLIYAASSLQSGVPSRFSGSGSGTEFTLTISSLQPEDFATYYCLQHNGFPYTFGQGTKLEIKR
notes: also called AGS62.21; v62.21
binding result [15]: binds

B4: CHv62.21 MAb (antibody, human IgG1, kappa, V domains shown)
VH: EVQLVESGGGLVRPGGSLRLSCAASGFTFSGYSINWVRQAPGKGLEWVSSISSSSNYIYYADSVKGRFTISRDNAKNSLYLQMNSLRAEDTAVYYCAREGFIAGTTFDAFDIWGQGTMVTVSS
VL: DIQMTQSPSSLSASVGDRVTITCRASQGIRNDLGWYQQKPGKAPKRLIYAASSLQSGVPSRFSGSGSGTEFTLTISSLQPEDFATYYCLQHNGFPYTFGQGTKLEIKR
modifications: C-terminal lysine deleted in most of the purified MAb; N-terminal pyroglutamate in a part of it; biotinylated with NHS LC biotin for the FACS of Table VI
notes: Recombinant, CHO-expressed, human IgG1 / kappa; variable regions from hybridoma v62-1b21; ATCC PTA-121831; also called cHv62-1b21.1
MFR (Geo mean cHv62.21/Geo mean isotype control) [16]: 49 fold | MFR (Geo mean cHv62.21/Geo mean isotype control) [17]: 623 fold | MFR (Geo mean cHv62.21/Geo mean isotype control) [18]: 34 fold | MFR (Geo mean cHv62.21/Geo mean isotype control) [19]: 69 fold | MFR (Geo mean cHv62.21/Geo mean isotype control) [20]: 42 fold | MFR (Geo mean cHv62.21/Geo mean isotype control) [21]: 17 fold | MFR (Geo mean cHv62.21/Geo mean isotype control) [22]: 7 fold | MFR (Geo mean cHv62.21/Geo mean isotype control) [23]: 50 fold | MFR (Geo mean cHv62.21/Geo mean isotype control) [24]: 8 fold | MFR (Geo mean cHv62.21/Geo mean isotype control) [25]: 86 fold | MFR (Geo mean cHv62.21/Geo mean isotype control) [26]: 44 fold | MFR (Geo mean cHv62.21/Geo mean isotype control) [27]: 7 fold

Second part, the molecule after the results:

Geometric Mean fluorescence [1]: 235 | Geometric Mean fluorescence [2]: 474 | Geometric Mean fluorescence [3]: 366 | Geometric Mean fluorescence [4]: 281 | Geometric Mean fluorescence [5]: 338 | Geometric Mean fluorescence [6]: 445 | Geometric Mean fluorescence [7]: 570 | Geometric Mean fluorescence [8]: 212 | Geometric Mean fluorescence [9]: 329 | Geometric Mean fluorescence [10]: 320 | Geometric Mean fluorescence [11]: 262 | Geometric Mean fluorescence [12]: 213
Molecule: isotype matched control antibody (Example 9)

IC50 (read off the curve) [13]: ~10 ng/mL
B1: human FLT3 ligand (ligand, UniProt P49771 27-185, looked up)
chain: TQDCSFQHSPISSDFAVKIRELSDYLLQDYPVTVASNLQDEELCGGLWRLVLAQRWMERLKTVAGSKMQGLLERVNTEIHFVTKCAFQPPPSCLRFVQTNISRLLQETSEQLVALKPWITRQNFSRCLELQCQPDSSTLPPPWSPRPLEATAPTAPQPP
modifications: biotinylated (Sulfo-NHS-LC-Biotin) in the Luminex assay
notes: later experiments say human FLT3 ligand; Treated as one molecule; also called hFL
